Tests used:
[1] = Pharmacokinetics of Free PTH after a single s.c. dose of TransCon PTH (SAD cohorts); assay type: in vivo, human; conditions: for Free PTH tmax: median (min-max); for Free PTH Cmax / Free PTH t½ / Free PTH AUC0-t: geometric mean (CV%)
Experimental: (§1) Subjects attended a screening visit; those who met eligibility criteria were randomly assigned to a SAD or MAD cohort (n = 10/cohort; eight active and two placebo) and received a single or multiple dose(s) of TransCon PTH, respectively, via a syringe and 31G 8‐mm needle s.c. to the abdomen. Single TransCon PTH doses ranged from 3.5 to 124 μg PTH(1‐34) (containing PTH(1‐34) [Bachem AG, Bubendorf, Switzerland], identical to the first 34 amino acids of rhPTH). Multiple TransCon PTH doses administered daily for 10 days ranged from 3.5 to 24 μg PTH(1‐34)/day.
(§2) The primary PK endpoints therefore included Free PTH (defined as the sum of Free PTH(1‐34) and Free PTH(1‐33)) as well as TransCon PTH.
(§3) The PK samples were analyzed by PRA Health Sciences (Assens, the Netherlands); Free PTH was quantified using protein precipitation, liquid‐liquid extraction, and solid‐phase extraction followed by ultra high‐performance liquid chromatography with tandem mass spectrometry detection measuring the two peptides, PTH(1‐34) and PTH(1‐33), by collection of both transitions simultaneously. Free PTH was calculated only if samples contained quantifiable levels of both Free PTH(1‐34) and Free PTH(1‐33); ie, above 1.40 and 0.958 pg/mL for Free PTH(1‐34) and Free PTH(1‐33), respectively. No lower limit of quantification was calculated for Free PTH because the ratio between Free PTH(1‐34) and Free PTH(1‐33) is not constant.
(§4) The PK parameters were calculated using Phoenix WinNonlin, version 6.4 (Certara USA, Inc., Princeton, NJ, USA). For Free PTH, tmax was defined as the time to maximum observed concentration and Cmax was defined as the maximum observed concentration. […] Peak‐to‐trough was calculated as the ratio of Cmax to C24h at steady‐state.

[2] = Pharmacokinetics of Free PTH after 10 daily s.c. doses of TransCon PTH (MAD cohorts); conditions: for Free PTH AUC0-24h / Free PTH t½ / Free PTH Cmax: geometric mean (CV%); for Free PTH tmax: median (min-max)
Experimental: as §1, §2, §3, §4

[3] = system: healthy adults; test: Pharmacodynamics: albumin-adjusted serum calcium (sCa); assay type: in vivo, human
Experimental: (§5) Subjects attended a screening visit; those who met eligibility criteria were randomly assigned to a SAD or MAD cohort (n = 10/cohort; eight active and two placebo) and received a single or multiple dose(s) of TransCon PTH, respectively, via a syringe and 31G 8‐mm needle s.c. to the abdomen. […] Multiple TransCon PTH doses administered daily for 10 days ranged from 3.5 to 24 μg PTH(1‐34)/day. Throughout drug administration and for 4 days following the final dose, subjects remained housed for laboratory tests and safety monitoring.
The PD endpoints included albumin‐adjusted sCa, fractional excretion of calcium, sP, renal tubular maximum reabsorption of phosphate/glomerular filtration rate (TMP/GFR), intact endogenous PTH(1‐84), osteoblastic bone formation markers (serum bone‐specific alkaline phosphatase [BSAP] and P1NP), osteoclastic bone resorption markers (urine NTx and serum CTx), sMg, and 1,25‐dihydroxyvitamin D. PK samples were collected predose and at regular intervals postdose through 96 hours for the SAD cohorts and through day14 for the MAD cohorts.
Safety and PD samples were collected and analyzed by a local laboratory (SydPath Clinical Trials, Darlinghurst, Australia).

[4] = system: healthy adults; test: Safety and tolerability: adverse events in SAD and MAD cohorts; conditions: for Any AE (%) / Any SAE (%) / Any drug-related AE (%) / Any moderate or severe AE (%): number of subjects (% of cohort); for Dizziness, light-headedness (including postural/orthostatic dizziness, syncope, presyncope) (%) / Tachycardia/palpitations (%): at least possibly related, number of subjects (%)
Experimental: as §5
At screening, demographic information, medical history, and concomitant medications, vital signs with height and weight, hematology, blood chemistry (including sCa, sP, and sMg), intact endogenous PTH(1‐84), 1,25‐dihydroxyvitamin D, and urine samples were collected. In addition, a limited physical examination and electrocardiogram (ECG) were performed.
Via regular vital sign checks, physical examinations, and safety laboratory tests, subjects were also monitored for adverse events (AEs) throughout the trial, including injection site reactions (erythema, ecchymosis, edema, pruritus, and pain).

[5] = single s.c. 72 μg PTH(1-34), n = 7
[6] = single s.c. 100 μg PTH(1-34), n = 8
[7] = single s.c. 124 μg PTH(1-34), n = 8
[8] = MAD, 12 μg PTH(1-34)/day s.c. x 10 days, n = 6
[9] = MAD, 16 μg PTH(1-34)/day s.c. x 10 days, n = 7
[10] = MAD, 20 μg PTH(1-34)/day s.c. x 10 days, n = 6
[11] = MAD, 24 μg PTH(1-34)/day s.c. x 10 days, n = 3
[12] = MAD cohorts administered TransCon PTH (n = 50)
[13] = MAD, 3.5 μg/day s.c. x 10 days, n = 8
[14] = MAD, 3.5 μg/day x 10 days, n = 8
[15] = MAD, 7 μg/day s.c. x 10 days, n = 8
[16] = MAD, 12 μg/day s.c. x 10 days, n = 10
[17] = MAD, 16 μg/day s.c. x 10 days, n = 8
[18] = MAD, 16 μg/day x 10 days, n = 8
[19] = MAD, 20 μg/day s.c. x 10 days, n = 8
[20] = MAD, 20 μg/day x 10 days, n = 8

With “TransCon PTH: long-acting, essentially inactive prodrug: PTH(1-34) transiently bound to an inert 40 kDa mPEG carrier via a proprietary autocleaving linker” the “Free PTH tmax” value ([1]; single s.c. 48 μg PTH(1-34), healthy adults, n = 7) was 8.0 (4.0–24.0) (n = 7) h, the “Free PTH Cmax” value ([1]; single s.c. 48 μg PTH(1-34), healthy adults, plasma, UHPLC-MS/MS, n = 7) was 6.61 (19.7) (n = 7) pg/mL and the “Free PTH t½” value ([1]; single s.c. 72 μg PTH(1-34), n = 5) was 54.4 (18.9) (n = 5) h. For the same substance, the “Free PTH Cmax” value [1, 5] was 7.67 (28.5) (n = 7) pg/mL, the “Free PTH AUC0-t” value ([1]; single s.c. 72 μg PTH(1-34), healthy adults, plasma, UHPLC-MS/MS, n = 5) was 420 (20.3) (n = 5) h*pg/mL and the “Free PTH tmax” value [1, 5] was 4.0 (4.0–60.3) (n = 7) h. The “Free PTH t½” value ([1]; single s.c. 100 μg PTH(1-34), n = 7) was 51.0 (32.4) (n = 7) h, the “Free PTH AUC0-t” value [1, 6] was 594 (17.3) (n = 8) h*pg/mL and the “Free PTH Cmax” value [1, 6] was 12.9 (11.7) (n = 8) pg/mL. The “Free PTH tmax” value [1, 6] was 6.0 (4.0–8.0) (n = 8) h, the “Free PTH t½” value ([1]; single s.c. 124 μg PTH(1-34), n = 7) was 55.7 (37.1) (n = 7) h and the “Free PTH AUC0-t” value [1, 7] was 684 (36.9) (n = 8) h*pg/mL. For the same substance, the “Free PTH Cmax” value [1, 7] was 13.8 (45.5) (n = 8) pg/mL, the “Free PTH tmax” value [1, 7] was 4.0 (4.0–60.0) (n = 8) h and the “Free PTH AUC0-24h” value ([2]; MAD, 12 μg PTH(1-34)/day s.c. x 10 days, healthy adults, plasma, UHPLC-MS/MS, n = 5) was 122 (13.4) (n = 5) h*pg/mL. For the same substance, the “Free PTH t½” value ([2]; MAD, 12 μg PTH(1-34)/day s.c. x 10 days, n = 4) was 64.8 (39.2) (n = 4) h, the “Free PTH Cmax” value [2, 8] was 6.24 (13.1) (n = 6) pg/mL and the “Free PTH tmax” value [2, 8] was 4.0 (4.0–16.0) (n = 6) h. For the same substance, the “Free PTH t½” value ([2]; MAD, 16 μg PTH(1-34)/day s.c. x 10 days, n = 4) was 60.0 (20.3) (n = 4) h, the “Free PTH AUC0-24h” value ([2]; MAD, 16 μg PTH(1-34)/day s.c. x 10 days, n = 5) was 152 (9.4) (n = 5) h*pg/mL and the “Free PTH Cmax” value [2, 9] was 6.87 (16.8) (n = 7) pg/mL. The “Free PTH tmax” value [2, 9] was 8.0 (4.0–12.0) (n = 7) h, the “Free PTH t½” value ([2]; MAD, 20 μg PTH(1-34)/day s.c. x 10 days, n = 5) was 51.7 (44.5) (n = 5) h and the “Free PTH AUC0-24h” value [2, 10] was 165 (21.7) (n = 6) h*pg/mL. The “Free PTH Cmax” value [2, 10] was 8.30 (21.4) (n = 6) pg/mL, the “Free PTH tmax” value [2, 10] was 6.1 (4.0–16.1) (n = 6) h and the “Free PTH AUC0-24h” value [2, 11] was 231 (24.2) (n = 3) h*pg/mL. For the same substance, the “Free PTH Cmax” value [2, 11] was 11.1 (27.6) (n = 3) pg/mL, the “Free PTH t½” value [2, 11] was 69.0 (22.3) (n = 3) h and the “Free PTH tmax” value [2, 11] was 7.9 (4.0–12.0) (n = 3) h. For the same substance, the “Free PTH level” value ([2]; MAD, TransCon PTH 12 μg PTH(1-34)/day) was 5 pg/mL, the “mean effective half-life of Free PTH” value ([2]; after multiple daily s.c. dosings, healthy adults) was “approximately 60 hours” and the “albumin-adjusted sCa on day 11” value ([3]; MAD, 24 μg PTH(1-34)/day x 10 days, n = 8, mean (± SD as printed), baseline 9.60 ± 0.06) was 10.63 ± 0.22 mg/dL. The “albumin-adjusted sCa on day 2” value ([3]; SAD, single s.c. 124 μg PTH(1-34), n = 8, mean ± SD as printed, baseline 9.43 ± 0.09) was 10.97 ± 0.20 mg/dL, the “treatment-emergent AE: catheter site phlebitis” value [4, 12] was 8% and the “treatment-emergent AE: dizziness” value [4, 12] was 10%. The “treatment-emergent AE: headache” value [4, 12] was 12%, the “treatment-emergent AE: musculoskeletal pain” value [4, 12] was 6% and the “treatment-emergent AE: palpitations” value [4, 12] was 8%. The “treatment-emergent AE: postural dizziness” value [4, 12] was 6%, the “treatment-emergent AE: presyncope” value [4, 12] was 6% and the “Any AE (%)” value [4, 13] was 6 (75.0) %. The “Any SAE (%)” value [4, 13] was 0 (0) %, the “Any drug-related AE (%)” value [4, 13] was 1 (12.5) % and the “Any moderate or severe AE (%)” value [4, 13] was 2 (25.0) %. For the same substance, the “Dizziness, light-headedness (including postural/orthostatic dizziness, syncope, presyncope) (%)” value [4, 14] was 1 (12.5) %, the “Tachycardia/palpitations (%)” value [4, 14] was 1 (12.5) % and the “Any AE (%)” value [4, 15] was 6 (75.0) %. For the same substance, the “Any SAE (%)” value [4, 15] was 0 (0) %, the “Any drug-related AE (%)” value [4, 15] was 2 (25.0) % and the “Any moderate or severe AE (%)” value [4, 15] was 3 (37.5) %. The “Dizziness, light-headedness (including postural/orthostatic dizziness, syncope, presyncope) (%)” value ([4]; MAD, 7 μg/day x 10 days, n = 8) was 1 (12.5) %, the “Tachycardia/palpitations (%)” value ([4]; MAD, 7 μg/day x 10 days, n = 8) was 0 (0.0) % and the “Any AE (%)” value [4, 16] was 7 (70.0) %. The “Any SAE (%)” value [4, 16] was 1 (10.0) %, the “Any drug-related AE (%)” value [4, 16] was 3 (30.0) % and the “Any moderate or severe AE (%)” value [4, 16] was 2 (20.0) %. For the same substance, the “Tachycardia/palpitations (%)” value ([4]; MAD, 12 μg/day x 10 days, n = 10) was 0 (0.0) %, the “Any AE (%)” value [4, 17] was 4 (50.0) % and the “Any SAE (%)” value [4, 17] was 0 (0) %. For the same substance, the “Any drug-related AE (%)” value [4, 17] was 2 (25.0) %, the “Any moderate or severe AE (%)” value [4, 17] was 1 (12.5) % and the “Dizziness, light-headedness (including postural/orthostatic dizziness, syncope, presyncope) (%)” value [4, 18] was 0 (0.0) %. For the same substance, the “Tachycardia/palpitations (%)” value [4, 18] was 0 (0.0) %, the “Any AE (%)” value [4, 19] was 3 (37.5) % and the “Any SAE (%)” value [4, 19] was 0 (0) %. The “Any drug-related AE (%)” value [4, 19] was 2 (25.0) %, the “Any moderate or severe AE (%)” value [4, 19] was 1 (12.5) % and the “Dizziness, light-headedness (including postural/orthostatic dizziness, syncope, presyncope) (%)” value [4, 20] was 0 (0.0) %. For the same substance, the “Tachycardia/palpitations (%)” value [4, 20] was 1 (12.5) % and the “subjects reporting vasodilatory or potentially vasodilatory AEs” value ([4]; MAD, 24 μg PTH(1-34)/day cohort, four of eight, placebo two of two (100%)) was 50%.
